Experimental data published in patent US20110076303A1.

Target: Foxn1 having a Flag tag (expressed from the Foxn1 expression vector, CMV promoter, in mouse epidermal cells)
Assay: cell-based or functional assay

AFF-4 having a C-Myc tag (expressed from the AFF-4 expression vector, CMV promoter, in mouse epidermal cells)
expression level of luciferase (reporter with a Foxn1 binding region upstream of an SV40 minimum promoter), relative to Foxn1 only = 1: 5 fold
